B1: Mitogen-activated protein kinase kinase kinase 2 (Mus musculus), Q61083 (parent)
chain: MDDQQALNSIMQDLAVLHKASRPALSLQETRKAKPSSPKKQNDVRVKFEHRGEKRILQVTRPVKLEDLRSKSKIAFGQSMDLHYTNNELVIPLTTQDDLDKAVELLDRSIHMKSLKILLVVNGSTQATNLEPSPSPEDLNNTPLGAERKKRLSVVGPPNRDRSSPPPGYIPDILHQIARNGSFTSINSEGEFIPESMDQMLDPLSLSSPENSGSGSCPSLDSPLDGESYPKSRMPRAQSYPDNHQEFTDYDNPIFEKFGKGGTYPRRYHVSYHHQEYNDGRKTFPRARRTQGTSFRSPVSFSPTDHSLSTSSGSSVFTPEYDDSRIRRRGSDIDNPTLTVTDISPPSRSPRAPTNWRLGKLLGQGAFGRVYLCYDVDTGRELAVKQVQFNPESPETSKEVNALECEIQLLKNLLHERIVQYYGCLRDPQEKTLSIFMELSPGGSIKDQLKAYGALTENVTRKYTRQILEGVHYLHSNMIVHRDIKGANILRDSTGNIKLGDFGASKRLQTICLSGTGMKSVTGTPYWMSPEVISGEGYGRKADIWSVACTVVEMLTEKPPWAEFEAMAAIFKIATQPTNPKLPPHVSDYTRDFLKRIFVEAKLRPSAEELLRHMFVHYH
partner: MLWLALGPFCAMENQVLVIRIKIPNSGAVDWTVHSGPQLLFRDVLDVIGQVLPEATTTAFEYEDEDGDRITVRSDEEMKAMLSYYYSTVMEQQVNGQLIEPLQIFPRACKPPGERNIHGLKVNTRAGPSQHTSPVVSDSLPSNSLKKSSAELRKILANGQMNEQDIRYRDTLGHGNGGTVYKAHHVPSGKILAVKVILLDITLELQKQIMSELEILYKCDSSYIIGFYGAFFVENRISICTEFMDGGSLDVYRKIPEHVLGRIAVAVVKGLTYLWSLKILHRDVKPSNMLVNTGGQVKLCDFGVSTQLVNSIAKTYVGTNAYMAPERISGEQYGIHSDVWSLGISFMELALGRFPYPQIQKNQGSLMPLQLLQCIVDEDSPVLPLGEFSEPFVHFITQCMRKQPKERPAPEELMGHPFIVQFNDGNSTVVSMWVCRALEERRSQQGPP

Variants of: B1
Details: with mp2k5_mouse Map2k5, Q9WVS7
With K47A the “effect of a mutation on the interaction” value was “decreasing interaction”.

Reference: IntAct's records for PubMed 12912994
